{"source": "paper PMC12697964", "target": "N-terminal region deleted seYdjB-like protein (amino acid from 35 to 162) (Salmonella enterica)", "experiment": "SEC-MALS; Superdex 75 10/300 GL, SEC buffer (20 mM Tris-HCl pH 8.0, 150 mM NaCl), 0.6 mL/min; three-angle light scattering and refractive index detectors; BSA as reference"}
{"substance": "N-terminal region deleted seYdjB-like protein (amino acid from 35 to 162) (domain or fragment)", "values": [{"measurement": "stoichiometry N", "value": 2}]}
